These results are taken from patent US20180038858A1.

One test concerns the target hCXCR1 (human) (UniProt P25024). Briefly: cell-based or functional assay.
The target in the next test is CCR7 (human) (UniProt P32248). Briefly: cell-based or functional assay.
Test [1] has as its target CCR1, 3 and 5-expressing cells (chemokine receptor-expressing cells) (human). Briefly: blood of a healthy donor passed through a column of biotinylated RANTES coupled streptavidin matrix; flow cytometry before and after. For orientation: A flow cytometer gives signals particle by particle.

Sequence of hCXCR1 (human) (P25024 whole entry): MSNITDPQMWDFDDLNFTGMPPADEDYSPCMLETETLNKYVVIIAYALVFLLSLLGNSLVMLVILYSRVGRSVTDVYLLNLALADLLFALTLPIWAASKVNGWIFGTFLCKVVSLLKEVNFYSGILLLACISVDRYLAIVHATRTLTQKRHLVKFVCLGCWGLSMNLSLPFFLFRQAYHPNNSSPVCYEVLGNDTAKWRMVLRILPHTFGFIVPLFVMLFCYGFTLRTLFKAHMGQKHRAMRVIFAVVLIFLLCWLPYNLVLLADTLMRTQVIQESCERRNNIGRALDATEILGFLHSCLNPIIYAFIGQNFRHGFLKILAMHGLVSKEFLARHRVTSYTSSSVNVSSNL
Sequence of biotinRANTES (CCL5), RANTES derivatised at Lys(67) with Biotin (P13501 other isoform, or with tags, fused parts or gaps): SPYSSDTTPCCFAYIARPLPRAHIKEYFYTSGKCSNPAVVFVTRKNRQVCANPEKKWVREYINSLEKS
Sequence of CCR7 (human) (P32248 25-378): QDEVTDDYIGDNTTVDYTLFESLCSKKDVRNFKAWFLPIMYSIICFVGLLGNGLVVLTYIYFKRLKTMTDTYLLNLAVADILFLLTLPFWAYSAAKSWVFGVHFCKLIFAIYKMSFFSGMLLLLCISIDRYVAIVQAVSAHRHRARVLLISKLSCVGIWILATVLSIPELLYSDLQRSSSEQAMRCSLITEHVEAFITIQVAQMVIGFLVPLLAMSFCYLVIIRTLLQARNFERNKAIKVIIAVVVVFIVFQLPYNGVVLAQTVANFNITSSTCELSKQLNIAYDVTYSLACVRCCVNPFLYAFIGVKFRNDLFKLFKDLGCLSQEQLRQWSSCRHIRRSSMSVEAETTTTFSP

In turn, “recombinant native IL-8 (from UniProt P10145 28-99) (ligand)” showed an EC50, agonist activity in an Aequorin assay in the test with hCXCR1 (human) of 4.2 nM. Take “recombinant native MIP-3β (from UniProt Q99731 22-98) (ligand)”: the EC50, agonist activity in an Aequorin assay in the test with CCR7 (human) was 1.6 nM. Take “biotinRANTES (CCL5), RANTES derivatised at Lys(67) with Biotin (from UniProt P13501 24-91) (ligand)”: the reduction of chemokine receptor-expressing cells by the column in test [1] worked out at 20%. With “biotinIL-8 (6-78), IL-8 (6-78) derivatised at Lys(78) with PEG-Biotin (from UniProt P10145 28-99) (ligand)”, the EC50, agonist activity in an Aequorin assay with hCXCR1 (human) amounted to 6.1 nM.
